PMC10447426 (2023)

Experiments:
[1] = target: T1, Fc fusion protein of mouse TNFR2 (mouse, UniProt P25119 23-258); assay: SPR
T1 chain: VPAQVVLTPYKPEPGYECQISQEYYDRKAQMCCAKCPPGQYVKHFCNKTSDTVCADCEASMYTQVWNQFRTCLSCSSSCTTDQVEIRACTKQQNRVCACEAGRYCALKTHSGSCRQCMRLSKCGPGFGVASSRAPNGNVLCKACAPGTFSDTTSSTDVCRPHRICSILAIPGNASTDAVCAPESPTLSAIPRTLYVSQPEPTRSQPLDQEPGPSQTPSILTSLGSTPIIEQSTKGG

[2] = target: T1, Fc fusion protein of mouse TNFR2; assay: SPR; BIAcore X-100; Fc fusion proteins of mouse TNFR2 and mouse TNFR1 immobilised on CM5 chip by amine coupling; HBS-EP plus running buffer; single-cycle kinetics, five concentrations up to 100 nM, 2 min injection at 30 μl/min, 2 min dissociation; R2agoTNF fitted with a monovalent and scR2agoTNF-Fc with a bivalent model (avidity); n = 1

B1: R2agoTNF (ligand)
chain: VRSSSRTPSDMPVAHVVANPQAEGQLQWTNHGGNALLANGVELRDNQLVVPSEGLYLIYSQVLFSGQGCPSTHVLLTHTISRIAVSYQTPVNLLSAIRSPCQRETPEGAEANPWYEPIYLGGVFQLEPGDRLSAEINRPDYLNFPDSGEVYFGIIAL
In the case of B1, the koff [1] is reported as 0.00277 s⁻¹ and the Kd [2] is reported as 1.75 nM.
